Numbering of substitutions follows the chain as printed.
B1: 33D03_par (antibody, V domains shown)
VH: EVQLQQSRPVLVKPGASVKMSCKASGYTFTDYYLNWVKQSPGKRLEWIGIINPYNGGTNYNQRFKGKATLTVDKSSSTAYMELNSLTSEDSAVYFCASEGLRTWFTYWGQGTLVTVSA
VL: DIVMTQSPSSLSVSAGEKVTMSCKSSQSLSNSGNQKIYLAWYQQKPGQPPKLLIYGASSRESGVPDRFTGSGSEIDFTLTISSVQAEDLAVYYCQNDHSHPFTFGSGTKLEIK
B2: 33D03_H3-L3 (antibody, V domains shown)
VH: QVQLVQSGAEVKKPGASVKVSCKASGYTFTDYYLNWVRQAPGQRLEWMGIINPYNGGTNYSQKFQGRVTITVDKSSSTAYMELSSLRSEDTAVYYCASEGLRTWFTYWGQGTLVTVSS
VL: DIVMTQSPDSLAVSLGERATINCKSSQSLSNSGNQKIYLAWYQQKPGQPPKLLIYGASSRESGVPDRFSGSGSEIDFTLTISSLQAEDVAVYYCQNDHSHPFTFGQGTKLEIK
B3: 33D03_H1-L1 (antibody, V domains shown)
VH: B2 VH with V72R, K74T, S76A
VL: B2 VL with E74G, I75T
B4: 33D03_H2-L4 (antibody, V domains shown)
VH: B2 VH with S61N, K63R, Q65K, V72R, K74T, S76A
VL: B2 VL with N22S
B5: 33D03_H1-L2 (antibody, V domains shown)
VH: B2 VH with V72R, K74T, S76A
VL: B2 VL with N22S, E74G, I75T
B6: 33D03_H2-L1 (antibody, V domains shown)
VH: B2 VH with S61N, K63R, Q65K, V72R, K74T, S76A
VL: B2 VL with E74G, I75T
B7: 33D03_H1-L3 (antibody, V domains shown)
VH: B2 VH with V72R, K74T, S76A
VL: B2 VL
B8: 33D03_H5-L3 (antibody, V domains shown)
VH: B2 VH with Q1E, S61N, K63R, Q65K, I70L
VL: B2 VL
B9: 33D03_H4-L2 (antibody, V domains shown)
VH: B2 VH with S61N, K63R, Q65K
VL: B2 VL with N22S, E74G, I75T
B10: 33D03_H2-L3 (antibody, V domains shown)
VH: B2 VH with S61N, K63R, Q65K, V72R, K74T, S76A
VL: B2 VL
B11: 33D03_H5-L1 (antibody, V domains shown)
VH: B2 VH with Q1E, S61N, K63R, Q65K, I70L
VL: B2 VL with E74G, I75T
B12: 33D03_H4-L4 (antibody, V domains shown)
VH: B2 VH with S61N, K63R, Q65K
VL: B2 VL with N22S
B13: 33D03_H4-L1 (antibody, V domains shown)
VH: B2 VH with S61N, K63R, Q65K
VL: B2 VL with E74G, I75T
B14: 33D03_H2-L2 (antibody, V domains shown)
VH: B2 VH with S61N, K63R, Q65K, V72R, K74T, S76A
VL: B2 VL with N22S, E74G, I75T
B15: 33D03_H3-L2 (antibody, V domains shown)
VH: B2 VH
VL: B2 VL with N22S, E74G, I75T
B16: 33D03_H5-L4 (antibody, V domains shown)
VH: B2 VH with Q1E, S61N, K63R, Q65K, I70L
VL: B2 VL with N22S
B17: 33D03_H4-L3 (antibody, V domains shown)
VH: B2 VH with S61N, K63R, Q65K
VL: B2 VL
B18: 33D03_H3-L4 (antibody, V domains shown)
VH: B2 VH
VL: B2 VL with N22S
B19: 25B05_H4-L2 (antibody, V domains shown)
VH: EVQLVQSGAEVKKPGASVKVSCKASGYTFTDYFMNWVRQAPGQRLEWMGVINPHNGGTSYSQKFQGRVTLTVDKSSSTAYMELSSLRSEDTAVYYCARRPLGSDYWGQGTTVTVSS
VL: DIVMTQSPSSVSASVGDRVTITCKASQNVGTAVAWYQQKPGKAPKLLIYSASSRYTGVPSRFSGSGSGTDFTLTISSLQPEDFATYYCQQYSSYPLTFGQGTKLEIK
B20: 25B05_H3-L4 (antibody, V domains shown)
VH: B19 VH with L70I
VL: B19 VL with G57E, S60D
B21: 25B05_H2-L1 (antibody, V domains shown)
VH: B19 VH with E1Q, L70I
VL: B19 VL with V3Q
B22: 25B05_H4-L3 (antibody, V domains shown)
VH: B19 VH
VL: B19 VL with V3Q, G57E, S60D
B23: 25B05_H2-L4 (antibody, V domains shown)
VH: B19 VH with E1Q, L70I
VL: B19 VL with G57E, S60D
B24: 25B05_H4-L1 (antibody, V domains shown)
VH: B19 VH
VL: B19 VL with V3Q
B25: 25B05_H2-L3 (antibody, V domains shown)
VH: B19 VH with E1Q, L70I
VL: B19 VL with V3Q, G57E, S60D
B26: 25B05_H2-L2 (antibody, V domains shown)
VH: B19 VH with E1Q, L70I
VL: B19 VL
B27: 25B05_H3-L1 (antibody, V domains shown)
VH: B19 VH with L70I
VL: B19 VL with V3Q
B28: 25B05_H3-L2 (antibody, V domains shown)
VH: B19 VH with L70I
VL: B19 VL
B29: 25B05_H1-L3 (antibody, V domains shown)
VH: B19 VH with E1Q, L70I, V72R, K74T, S76A
VL: B19 VL with V3Q, G57E, S60D
B30: 25B05_H4-L4 (antibody, V domains shown)
VH: B19 VH
VL: B19 VL with G57E, S60D
B31: 25B05_H3-L3 (antibody, V domains shown)
VH: B19 VH with L70I
VL: B19 VL with V3Q, G57E, S60D

What follows are binders tested against human VWF (human) (assay: ELISA).
human VWF (human), sequence (P04275 whole entry): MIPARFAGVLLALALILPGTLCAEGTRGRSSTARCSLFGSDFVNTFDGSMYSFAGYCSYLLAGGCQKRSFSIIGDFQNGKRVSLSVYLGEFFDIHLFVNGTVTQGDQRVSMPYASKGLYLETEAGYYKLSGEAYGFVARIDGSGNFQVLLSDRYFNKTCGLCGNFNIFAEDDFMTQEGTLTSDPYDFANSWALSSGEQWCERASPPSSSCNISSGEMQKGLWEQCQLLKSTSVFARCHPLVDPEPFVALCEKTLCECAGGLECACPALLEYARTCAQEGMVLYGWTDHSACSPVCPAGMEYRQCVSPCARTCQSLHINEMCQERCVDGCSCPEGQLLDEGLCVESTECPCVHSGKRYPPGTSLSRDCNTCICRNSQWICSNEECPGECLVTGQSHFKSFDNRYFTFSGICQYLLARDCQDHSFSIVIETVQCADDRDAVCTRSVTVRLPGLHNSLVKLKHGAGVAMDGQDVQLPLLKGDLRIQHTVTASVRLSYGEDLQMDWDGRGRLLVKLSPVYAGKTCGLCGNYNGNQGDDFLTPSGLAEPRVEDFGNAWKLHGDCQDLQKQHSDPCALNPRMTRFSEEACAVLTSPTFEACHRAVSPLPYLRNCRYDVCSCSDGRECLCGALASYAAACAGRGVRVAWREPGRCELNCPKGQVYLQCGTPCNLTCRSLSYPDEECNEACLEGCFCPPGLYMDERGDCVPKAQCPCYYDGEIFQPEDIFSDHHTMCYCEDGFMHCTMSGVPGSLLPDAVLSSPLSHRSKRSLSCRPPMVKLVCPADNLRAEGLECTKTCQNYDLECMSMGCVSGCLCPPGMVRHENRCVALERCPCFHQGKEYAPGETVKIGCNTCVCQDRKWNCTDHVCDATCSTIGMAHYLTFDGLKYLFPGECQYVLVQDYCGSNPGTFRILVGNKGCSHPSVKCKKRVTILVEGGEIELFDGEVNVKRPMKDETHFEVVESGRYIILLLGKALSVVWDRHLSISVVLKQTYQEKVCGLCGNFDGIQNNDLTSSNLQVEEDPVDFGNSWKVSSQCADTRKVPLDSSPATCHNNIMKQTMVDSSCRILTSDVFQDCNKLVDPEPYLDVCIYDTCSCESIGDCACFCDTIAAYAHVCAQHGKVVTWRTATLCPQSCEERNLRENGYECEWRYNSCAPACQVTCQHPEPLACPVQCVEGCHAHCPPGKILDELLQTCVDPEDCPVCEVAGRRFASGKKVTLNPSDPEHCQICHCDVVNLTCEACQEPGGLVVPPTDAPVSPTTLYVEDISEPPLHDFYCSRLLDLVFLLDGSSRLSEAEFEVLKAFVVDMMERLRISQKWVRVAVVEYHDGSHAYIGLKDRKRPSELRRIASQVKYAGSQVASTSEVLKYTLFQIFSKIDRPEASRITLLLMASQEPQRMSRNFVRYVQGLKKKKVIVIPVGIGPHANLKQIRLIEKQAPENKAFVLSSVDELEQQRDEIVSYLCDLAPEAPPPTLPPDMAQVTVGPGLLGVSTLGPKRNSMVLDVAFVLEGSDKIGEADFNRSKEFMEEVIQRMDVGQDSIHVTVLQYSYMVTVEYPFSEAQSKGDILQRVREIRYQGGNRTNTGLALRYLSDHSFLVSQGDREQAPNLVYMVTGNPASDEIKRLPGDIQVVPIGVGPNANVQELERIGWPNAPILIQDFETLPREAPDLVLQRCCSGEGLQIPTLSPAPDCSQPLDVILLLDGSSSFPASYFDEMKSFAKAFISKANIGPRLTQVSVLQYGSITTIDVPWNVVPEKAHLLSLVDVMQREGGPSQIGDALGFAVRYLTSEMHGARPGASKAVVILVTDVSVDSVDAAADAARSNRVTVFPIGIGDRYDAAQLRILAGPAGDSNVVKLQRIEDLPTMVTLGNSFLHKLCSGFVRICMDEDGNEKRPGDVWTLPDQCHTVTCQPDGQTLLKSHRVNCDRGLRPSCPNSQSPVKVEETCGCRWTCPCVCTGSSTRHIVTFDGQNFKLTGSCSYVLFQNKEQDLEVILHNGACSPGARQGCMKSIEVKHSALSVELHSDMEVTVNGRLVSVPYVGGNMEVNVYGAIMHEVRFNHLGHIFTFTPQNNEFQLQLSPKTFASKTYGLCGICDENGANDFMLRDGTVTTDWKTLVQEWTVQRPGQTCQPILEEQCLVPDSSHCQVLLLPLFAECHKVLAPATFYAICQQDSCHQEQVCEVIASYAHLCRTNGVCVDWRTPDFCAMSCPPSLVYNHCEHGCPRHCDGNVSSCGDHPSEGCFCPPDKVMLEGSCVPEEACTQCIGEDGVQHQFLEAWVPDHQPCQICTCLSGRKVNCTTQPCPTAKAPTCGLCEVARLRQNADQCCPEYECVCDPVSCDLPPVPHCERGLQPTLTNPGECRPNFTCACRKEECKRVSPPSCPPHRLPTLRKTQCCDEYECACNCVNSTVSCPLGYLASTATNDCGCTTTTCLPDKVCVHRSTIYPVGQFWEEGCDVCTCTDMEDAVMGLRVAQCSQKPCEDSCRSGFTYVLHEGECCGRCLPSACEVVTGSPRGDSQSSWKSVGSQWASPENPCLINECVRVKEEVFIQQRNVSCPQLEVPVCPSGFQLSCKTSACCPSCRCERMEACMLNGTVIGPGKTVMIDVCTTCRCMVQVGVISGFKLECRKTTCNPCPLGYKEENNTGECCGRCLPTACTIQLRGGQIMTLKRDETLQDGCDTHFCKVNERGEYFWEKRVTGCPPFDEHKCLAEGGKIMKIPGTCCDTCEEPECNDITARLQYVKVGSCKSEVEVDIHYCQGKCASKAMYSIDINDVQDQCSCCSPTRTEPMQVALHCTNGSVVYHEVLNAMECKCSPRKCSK

EC50	Binder
0.0498 µg/mL	B1
0.0483 µg/mL	B2
0.0437 µg/mL	B3
0.0381 µg/mL	B4
0.0453 µg/mL	B5
0.0373 µg/mL	B6
0.0597 µg/mL	B7
0.0335 µg/mL	B8
0.0354 µg/mL	B9
0.0371 µg/mL	B10
0.0297 µg/mL	B11
0.0365 µg/mL	B12
0.0381 µg/mL	B13
0.0394 µg/mL	B14
0.0457 µg/mL	B15
0.0365 µg/mL	B16

EC50	Binder
0.0371 µg/mL	B17
0.0434 µg/mL	B18
0.0357 µg/mL	B19
0.0379 µg/mL	B20
0.0612 µg/mL	B21
0.0271 µg/mL	B22
0.0312 µg/mL	B23
0.0385 µg/mL	B24
0.0416 µg/mL	B25
0.0564 µg/mL	B26
0.0594 µg/mL	B27
0.0516 µg/mL	B28
0.0335 µg/mL	B29
0.0264 µg/mL	B30
0.0434 µg/mL	B31
